Laboratory results as given in patent US20100260668A1 (published 2010).

Biological target: T1, VEGF (UniProt P15692-4 27-191)
T1 construct: Bought reagent; also called vascular endothelial growth factor
Assay: SPR (Biacore), DVD-Ig captured, VEGF in solution

T1 sequence (P15692 other isoform, or with tags, fused parts or gaps limits assumed): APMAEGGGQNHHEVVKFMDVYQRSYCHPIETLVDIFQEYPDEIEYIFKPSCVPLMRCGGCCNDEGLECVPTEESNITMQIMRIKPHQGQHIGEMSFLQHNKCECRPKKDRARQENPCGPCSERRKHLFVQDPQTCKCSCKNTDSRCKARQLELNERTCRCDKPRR

Binder	Kd [nM]	koff [s⁻¹]	kon [M⁻¹ s⁻¹]
DVD455 (bispecific antibody, human IgG1, kappa, DVD-Ig; N-term; VD AB069 (DLL4), C-term; VD AB070 (VEGF); HC linker long, LC linker short; also called DVD455H; DVD455L) heavy: not shown light: DIVMTQSPDSLAVSLGERATISCRASESVDNYGISFMKWFQQKPGQPPKLLIYAASNQGSGVPDRFSGSGSGTDFTLTISSLQAEDVAVYYCQQSKEVPWTFGGGTKVEIKRTVAAPDIQMTQSPSSLSASVGDRVTITCRASQDVSTAVAWYQQKPGKAPKLLIYSASFLYSGVPSRFSGSGSGTDFTLTISSLQPEDFATYYCQQSYTTPPTFGQGTKVEIKRTVAAPSVFIFPPSDEQLKSGTASVVCLLNNFYPREAKVQWKVDNALQSGNSQESVTEQDSKDSTYSLSSTLTLSKADYEKHKVYACEVTHQGLSSPVTKSFNRGEC	0.46	8.15e-05	177000
DVD519 (bispecific antibody, human IgG1, kappa, lambda, DVD-Ig; N-term; VD AB073 (DLL4), C-term; VD AB070 (VEGF); HC linker long, LC linker long; also called DVD519H; DVD519L) heavy: not shown light: QAVVTQESALTTSPGETVTLTCRSSTGAVTTSNYANWVQEKPDHLFTGLIGGTNNRAPGVPARFSGSLIGDKAALTITGAQTEDEAIYFCALWYSNHWVFGGGTKLTVLGQPKAAPSVTLFPPDIQMTQSPSSLSASVGDRVTITCRASQDVSTAVAWYQQKPGKAPKLLIYSASFLYSGVPSRFSGSGSGTDFTLTISSLQPEDFATYYCQQSYTTPPTFGQGTKVEIKRTVAAPSVFIFPPSDEQLKSGTASVVCLLNNFYPREAKVQWKVDNALQSGNSQESVTEQDSKDSTYSLSSTLTLSKADYEKHKVYACEVTHQGLSSPVTKSFNRGEC	0.223	0.00522	2.35e+07
DVD531 (bispecific antibody, human IgG1, kappa, lambda, DVD-Ig; N-term; VD AB073 (DLL4), C-term; VD AB070 (VEGF); HC linker short, LC linker long; also called DVD531H; DVD531L) heavy: not shown light: QAVVTQESALTTSPGETVTLTCRSSTGAVTTSNYANWVQEKPDHLFTGLIGGTNNRAPGVPARFSGSLIGDKAALTITGAQTEDEAIYFCALWYSNHWVFGGGTKLTVLGQPKAAPSVTLFPPDIQMTQSPSSLSASVGDRVTITCRASQDVSTAVAWYQQKPGKAPKLLIYSASFLYSGVPSRFSGSGSGTDFTLTISSLQPEDFATYYCQQSYTTPPTFGQGTKVEIKRTVAAPSVFIFPPSDEQLKSGTASVVCLLNNFYPREAKVQWKVDNALQSGNSQESVTEQDSKDSTYSLSSTLTLSKADYEKHKVYACEVTHQGLSSPVTKSFNRGEC	0.584	0.000442	756000
DVD472 (bispecific antibody, human IgG1, kappa, DVD-Ig; N-term; VD AB070 (VEGF), C-term; VD AB015 (DLL4); HC linker long, LC linker long; also called DVD472H; DVD472L) heavy: not shown light: DIQMTQSPSSLSASVGDRVTITCRASQDVSTAVAWYQQKPGKAPKLLIYSASFLYSGVPSRFSGSGSGTDFTLTISSLQPEDFATYYCQQSYTTPPTFGQGTKVEIKRTVAAPSVFIFPPDIQMTQSPSSLSASVGDRVTITCRASQDVSTAVAWYQQKPGKAPKLLIYSASFLYSGVPSRFSGSGSGTDFTLTISSLQPEDFATTYYCQQSYTGTVTFGQGTKVEIKRTVAAPSVFIFPPSDEQLKSGTASVVCLLNNFYPREAKVQWKVDNALQSGNSQESVTEQDSKDSTYSLSSTLTLSKADYEKHKVYACEVTHQGLSSPVTKSFNRGEC	0.201	0.00024	1.2e+06
DVD489 (bispecific antibody, human IgG1, kappa, L234A L235A, DVD-Ig; N-term; VD AB072 (DLL4), C-term; VD AB070 (VEGF); HC linker short, LC linker short; also called DVD489H; DVD489L) heavy: not shown light: DIQMTQSSSYLSVSLGGRVTITCKASDHINNWLAWYQQKPGNAPRLLISGATSLETGVPSRFSGSGSGKDYTLSITSLQTEDVATYYCQQYWSIPLTFGAGTKLELKRTVAAPDIQMTQSPSSLSASVGDRVTITCRASQDVSTAVAWYQQKPGKAPKLLIYSASFLYSGVPSRFSGSGSGTDFTLTISSLQPEDFATYYCQQSYTTPPTFGQGTKVEIKRTVAAPSVFIFPPSDEQLKSGTASVVCLLNNFYPREAKVQWKVDNALQSGNSQESVTEQDSKDSTYSLSSTLTLSKADYEKHKVYACEVTHQGLSSPVTKSFNRGEC	1.76	0.000365	207000
DVD501 (bispecific antibody, human IgG1, kappa, DVD-Ig; N-term; VD AB072 (DLL4), C-term; VD AB070 (VEGF); HC linker long, LC linker short; also called DVD501H; DVD501L) heavy: not shown light: DIQMTQSSSYLSVSLGGRVTITCKASDHINNWLAWYQQKPGNAPRLLISGATSLETGVPSRFSGSGSGKDYTLSITSLQTEDVATYYCQQYWSIPLTFGAGTKLELKRTVAAPDIQMTQSPSSLSASVGDRVTITCRASQDVSTAVAWYQQKPGKAPKLLIYSASFLYSGVPSRFSGSGSGTDFTLTISSLQPEDFATYYCQQSYTTPPTFGQGTKVEIKRTVAAPSVFIFPPSDEQLKSGTASVVCLLNNFYPREAKVQWKVDNALQSGNSQESVTEQDSKDSTYSLSSTLTLSKADYEKHKVYACEVTHQGLSSPVTKSFNRGEC	0.821	0.000175	213000
DVD495 (bispecific antibody, human IgG1, kappa, DVD-Ig; N-term; VD AB072 (DLL4), C-term; VD AB070 (VEGF); HC linker long, LC linker long; also called DVD495H; DVD495L) heavy: not shown light: DIQMTQSSSYLSVSLGGRVTITCKASDHINNWLAWYQQKPGNAPRLLISGATSLETGVPSRFSGSGSGKDYTLSITSLQTEDVATYYCQQYWSIPLTFGAGTKLELKRTVAAPSVFIFPPDIQMTQSPSSLSASVGDRVTITCRASQDVSTAVAWYQQKPGKAPKLLIYSASFLYSGVPSRFSGSGSGTDFTLTISSLQPEDFATYYCQQSYTTPPTFGQGTKVEIKRTVAAPSVFIFPPSDEQLKSGTASVVCLLNNFYPREAKVQWKVDNALQSGNSQESVTEQDSKDSTYSLSSTLTLSKADYEKHKVYACEVTHQGLSSPVTKSFNRGEC	0.645	0.000204	316000
DVD507 (bispecific antibody, human IgG1, kappa, L234A L235A, DVD-Ig; N-term; VD AB072 (DLL4), C-term; VD AB070 (VEGF); HC linker short, LC linker long; also called DVD507H; DVD507L) heavy: not shown light: DIQMTQSSSYLSVSLGGRVTITCKASDHINNWLAWYQQKPGNAPRLLISGATSLETGVPSRFSGSGSGKDYTLSITSLQTEDVATYYCQQYWSIPLTFGAGTKLELKRTVAAPSVFIFPPDIQMTQSPSSLSASVGDRVTITCRASQDVSTAVAWYQQKPGKAPKLLIYSASFLYSGVPSRFSGSGSGTDFTLTISSLQPEDFATYYCQQSYTTPPTFGQGTKVEIKRTVAAPSVFIFPPSDEQLKSGTASVVCLLNNFYPREAKVQWKVDNALQSGNSQESVTEQDSKDSTYSLSSTLTLSKADYEKHKVYACEVTHQGLSSPVTKSFNRGEC	0.847	0.000201	238000
DVD449 (bispecific antibody, human IgG1, kappa, DVD-Ig; N-term; VD AB069 (DLL4), C-term; VD AB070 (VEGF); HC linker long, LC linker long; also called DVD449H; DVD449L) heavy: not shown light: DIVMTQSPDSLAVSLGERATISCRASESVDNYGISFMKWFQQKPGQPPKLLIYAASNQGSGVPDRFSGSGSGTDFTLTISSLQAEDVAVYYCQQSKEVPWTFGGGTKVEIKRTVAAPSVFIFPPDIQMTQSPSSLSASVGDRVTITCRASQDVSTAVAWYQQKPGKAPKLLIYSASFLYSGVPSRFSGSGSGTDFTLTISSLQPEDFATYYCQQSYTTPPTFGQGTKVEIKRTVAAPSVFIFPPSDEQLKSGTASVVCLLNNFYPREAKVQWKVDNALQSGNSQESVTEQDSKDSTYSLSSTLTLSKADYEKHKVYACEVTHQGLSSPVTKSFNRGEC	0.903	0.000208	230000
DVD461 (bispecific antibody, human IgG1, kappa, DVD-Ig; N-term; VD AB069 (DLL4), C-term; VD AB070 (VEGF); HC linker short, LC linker long; also called DVD461H; DVD461L) heavy: not shown light: DIVMTQSPDSLAVSLGERATISCRASESVDNYGISFMKWFQQKPGQPPKLLIYAASNQGSGVPDRFSGSGSGTDFTLTISSLQAEDVAVYYCQQSKEVPWTFGGGTKVEIKRTVAAPSVFIFPPDIQMTQSPSSLSASVGDRVTITCRASQDVSTAVAWYQQKPGKAPKLLIYSASFLYSGVPSRFSGSGSGTDFTLTISSLQPEDFATYYCQQSYTTPPTFGQGTKVEIKRTVAAPSVFIFPPSDEQLKSGTASVVCLLNNFYPREAKVQWKVDNALQSGNSQESVTEQDSKDSTYSLSSTLTLSKADYEKHKVYACEVTHQGLSSPVTKSFNRGEC	0.75	0.000202	269000
DVD513 (bispecific antibody, human IgG1, kappa, DVD-Ig; N-term; VD AB073 (DLL4), C-term; VD AB070 (VEGF); HC linker short, LC linker short; also called DVD513H; DVD513L) heavy: not shown light: QAVVTQESALTTSPGETVTLTCRSSTGAVTTSNYANWVQEKPDHLFTGLIGGTNNRAPGVPARFSGSLIGDKAALTITGAQTEDEAIYFCALWYSNHWVFGGGTKLTVLGQPKAAPDIQMTQSPSSLSASVGDRVTITCRASQDVSTAVAWYQQKPGKAPKLLIYSASFLYSGVPSRFSGSGSGTDFTLTISSLQPEDFATYYCQQSYTTPPTFGQGTKVEIKRTVAAPSVFIFPPSDEQLKSGTASVVCLLNNFYPREAKVQWKVDNALQSGNSQESVTEQDSKDSTYSLSSTLTLSKADYEKHKVYACEVTHQGLSSPVTKSFNRGEC	1.24	0.000497	400000
DVD525 (bispecific antibody, human IgG1, kappa, DVD-Ig; N-term; VD AB073 (DLL4), C-term; VD AB070 (VEGF); HC linker long, LC linker short; also called DVD525H; DVD525L) heavy: not shown light: QAVVTQESALTTSPGETVTLTCRSSTGAVTTSNYANWVQEKPDHLFTGLIGGTNNRAPGVPARFSGSLIGDKAALTITGAQTEDEAIYFCALWYSNHWVFGGGTKLTVLGQPKAAPDIQMTQSPSSLSASVGDRVTITCRASQDVSTAVAWYQQKPGKAPKLLIYSASFLYSGVPSRFSGSGSGTDFTLTISSLQPEDFATYYCQQSYTTPPTFGQGTKVEIKRTVAAPSVFIFPPSDEQLKSGTASVVCLLNNFYPREAKVQWKVDNALQSGNSQESVTEQDSKDSTYSLSSTLTLSKADYEKHKVYACEVTHQGLSSPVTKSFNRGEC	0.447	0.000483	1.08e+06
DVD466 (bispecific antibody, human IgG1, kappa, DVD-Ig; N-term; VD AB070 (VEGF), C-term; VD AB015 (DLL4); HC linker short, LC linker short; also called DVD466H; DVD466L) heavy: not shown light: DIQMTQSPSSLSASVGDRVTITCRASQDVSTAVAWYQQKPGKAPKLLIYSASFLYSGVPSRFSGSGSGTDFTLTISSLQPEDFATYYCQQSYTTPPTFGQGTKVEIKRTVAAPDIQMTQSPSSLSASVGDRVTITCRASQDVSTAVAWYQQKPGKAPKLLIYSASFLYSGVPSRFSGSGSGTDFTLTISSLQPEDFATTYYCQQSYTGTVTFGQGTKVEIKRTVAAPSVFIFPPSDEQLKSGTASVVCLLNNFYPREAKVQWKVDNALQSGNSQESVTEQDSKDSTYSLSSTLTLSKADYEKHKVYACEVTHQGLSSPVTKSFNRGEC	0.71	0.000393	553000
DVD478 (bispecific antibody, human IgG1, kappa, DVD-Ig; N-term; VD AB070 (VEGF), C-term; VD AB015 (DLL4); HC linker long, LC linker short; also called DVD478H; DVD478L) heavy: not shown light: DIQMTQSPSSLSASVGDRVTITCRASQDVSTAVAWYQQKPGKAPKLLIYSASFLYSGVPSRFSGSGSGTDFTLTISSLQPEDFATYYCQQSYTTPPTFGQGTKVEIKRTVAAPDIQMTQSPSSLSASVGDRVTITCRASQDVSTAVAWYQQKPGKAPKLLIYSASFLYSGVPSRFSGSGSGTDFTLTISSLQPEDFATTYYCQQSYTGTVTFGQGTKVEIKRTVAAPSVFIFPPSDEQLKSGTASVVCLLNNFYPREAKVQWKVDNALQSGNSQESVTEQDSKDSTYSLSSTLTLSKADYEKHKVYACEVTHQGLSSPVTKSFNRGEC	0.354	0.000195	552000
